# According to publication PMC12661054, “The CIP2A-TOPBP1 axis facilitates mitotic DNA repair via MiDAS and MMEJ” (Nature Communications, 2025):
# Columns and labels:
# TOPBP1 BRCT0-1-2, 1-290 [1] = target: TOPBP1 BRCT0-1-2, 1-290 (UniProt Q92547); test: fluorescence polarisation titration; details: reference: pT1260 peptide, untreated; sites T1260
# TOPBP1 = TOPBP1 (UniProt Q92547); test: GFP-Trap co-IP, western blot; details: reference: eGFP-SLX4 wild type; sites T1260
# TOPBP1 BRCT0-1-2, 1-290 [2] = target: TOPBP1 BRCT0-1-2, 1-290 (UniProt Q92547); test: biotin-peptide pull-down, Coomassie SDS-PAGE; details: reference: unphosphorylated T1260 peptide; sites T1260
substance,measurement,setting,value
SLX4 1253-1267 (from UniProt Q8IY92) pT1260 peptide treated with lambda phosphatase,binding against the reference,"TOPBP1 BRCT0-1-2, 1-290 [1]",lost
SLX4 (from UniProt Q8IY92) eGFP-SLX4 T1260A,binding against the reference,TOPBP1,lost
SLX4 1247-1267 (from UniProt Q8IY92) synthetic pT1260 peptide,binding against the reference,"TOPBP1 BRCT0-1-2, 1-290 [2]",gained
